{"source": "paper PMC6042084", "binders": {"B1": {"name": "psbA 5' UTR probe (full length, first 82 nt) (ssRNA)", "RNA": "UUCAUAACAAGCUCUCAAUUAUCUACUUAGAGAAUUUGUGCGCUUGGAGUCCCUGAUUAUUAAAUAAACCAAGGAUUUUACC"}}, "target": "T1, LPE1 (mature, without transit peptide) (Arabidopsis thaliana, UniProt Q9SNB7 69-665)", "T1 sequence": "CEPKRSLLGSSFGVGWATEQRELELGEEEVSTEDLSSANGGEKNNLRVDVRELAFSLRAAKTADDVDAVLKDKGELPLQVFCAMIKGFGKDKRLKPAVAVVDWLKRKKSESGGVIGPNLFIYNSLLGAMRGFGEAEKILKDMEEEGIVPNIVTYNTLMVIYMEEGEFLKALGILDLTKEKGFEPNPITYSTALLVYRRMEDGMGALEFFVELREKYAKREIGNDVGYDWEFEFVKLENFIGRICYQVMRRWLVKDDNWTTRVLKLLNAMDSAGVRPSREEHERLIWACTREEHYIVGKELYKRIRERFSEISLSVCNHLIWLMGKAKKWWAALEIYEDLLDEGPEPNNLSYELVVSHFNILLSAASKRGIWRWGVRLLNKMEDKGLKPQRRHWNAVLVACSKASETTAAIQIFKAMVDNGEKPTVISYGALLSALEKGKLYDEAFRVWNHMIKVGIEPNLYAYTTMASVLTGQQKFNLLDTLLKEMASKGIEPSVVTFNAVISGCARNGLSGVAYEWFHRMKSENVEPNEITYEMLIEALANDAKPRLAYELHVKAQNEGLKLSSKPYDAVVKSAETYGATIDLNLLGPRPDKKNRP", "experiment": "EMSA", "data": [{"binder": "B1", "values": [{"measurement": "binding result", "value": "binds"}]}]}
